According to publication PMC5010959:
Several values for one entry are separate records, joined by “and”; a condition that tells them apart may be missing. Equal values may be shown once.

B1: TW1 2'-F modified (XNA)
RNA: GGGUACCCACUCAGGUACGAUUGGUGCGAUAAACUAGACUCGUCAUGCGCAGUCUCCUACAGCUUUCUAGAAUUAAGCUUAGGC
modifications: 2'-fluoro pyrimidines (C and U)
B2: TW1 unmodified (structured_RNA)
RNA: B1 RNA
B3: TW3 2'-F modified (XNA)
RNA: GGGUACCCACUCAGGUACGUGGGAAUUGAGCGGGUCACACUAUAAGCACGAGCCUUAGACAGCUUUCUAGAAUUAAGCUUAGGC
modifications: 2'-fluoro pyrimidines (C and U)
B4: TW3 unmodified (structured_RNA)
RNA: B3 RNA

Legend:
BoNT/A light chain (LCA) [1] = target: T1, BoNT/A light chain (LCA) (Clostridium botulinum type A, UniProt P0DPI1 2-448)
T1 sequence (P0DPI1 2-448): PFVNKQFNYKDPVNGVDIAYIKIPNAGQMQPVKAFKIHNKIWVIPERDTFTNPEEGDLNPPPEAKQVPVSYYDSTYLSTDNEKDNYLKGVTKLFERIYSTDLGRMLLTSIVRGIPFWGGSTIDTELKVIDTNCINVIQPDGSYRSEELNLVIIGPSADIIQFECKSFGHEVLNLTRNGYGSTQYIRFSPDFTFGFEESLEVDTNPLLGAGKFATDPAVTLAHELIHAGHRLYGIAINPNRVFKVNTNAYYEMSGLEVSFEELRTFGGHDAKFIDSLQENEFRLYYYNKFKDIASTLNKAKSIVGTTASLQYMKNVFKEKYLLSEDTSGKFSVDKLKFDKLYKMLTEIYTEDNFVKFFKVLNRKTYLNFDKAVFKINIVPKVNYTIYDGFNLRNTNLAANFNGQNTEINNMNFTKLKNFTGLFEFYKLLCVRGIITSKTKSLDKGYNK

BoNT/A light chain (LCA) [2] = target: T1, BoNT/A light chain (LCA); test: SPR

Row | Binder | IC50 (BoNT/A light chain (LCA) [1]) [nM] | Ki (BoNT/A light chain (LCA) [1]) | Kd (BoNT/A light chain (LCA) [2]) [nM]
1 | B1 | 639 ± 13 | 433 nM and 720 nM | 31.4 ± 4.4
2 | B2 |  |  | 109 ± 9.9
3 | B3 | 727 ± 12 | 463 nM and 849 nM | 27.9 ± 4.3
4 | B4 |  |  | 59.1 ± 7.3
